US20220152105A1 (published 2022)

Target: T1, gp100 peptide on HLA-C*06:02 (human)
T1 peptide: HRRGSRSYV
Assay: multimer staining
Procedure: T cells (1×10⁵) were incubated for 30 minutes at 37° C. in the presence of 50 nM dasatinib (LC laboratories). The cells were then washed and incubated with 5-10 μg/ml of multimer for 30 minutes at room temperature, and R-phycoerythrin-conjugated AffiniPure Fab fragment goat anti-mouse IgG1 (Jackson ImmunoResearch Laboratories) was added for 15 minutes at 4° C. Next, the cells were washed three times and costained with an anti-CD8 mAb for 15 minutes at 4° C. Dead cells were finally discriminated using the LIVE/DEAD Fixable Dead Cell Stain kit.

B1: C*06:02/gp100190-198 TCR (TCR, V domains shown)
Valpha: KNQVEQSPQSLIILEGKNCTLQCNYTVSPFSNLRWYKQDTGRGPVSLTIMTFSENTKSNGRYTATLDADTKQSSLHITASQLSDSASYICVVRGMDSSYKLIFGSGTRLLVRP
Vbeta: DAMVIQNPRYQVTQFGKPVTLSCSQTLNHNVMYWYQQKSSQAPKLLFHYYDKDFNNEADTPDNFQSRRPNTSFCFLDIRSPGLGDAAMYLCATSSEDSSNQPQHFGDGTRLSIL
B1: recognises.
